Residue numbers refer to the chain shown, from its start. Names and notes keep the numbering of the source.
B1: 434H: single substitution Q434H in SEQ ID NO:2 (protein)
chain: MGPTPTATAAGAAVAAASAAEQAAFRLVGHRNFVRFNPRSDRFQTLAFHHVELWCADAASAAGRFSFALGVPLAARSDLSTGNSAHASLLLRSGSLSLLFTAPYAHGADAATAALPSFSAAAARRFAADHGLAVRAVALRVADAEDAFRASVAAGARPAFGPVDLGRGFRLAEVELYGDVVLRYVSYPDGAAGEPFLPGFEGVASPGAADYGLSRFDHIVGNVPELAPAAAYMAGFTGFHEFAEFTTEDVGTTESGLNSMALANNSENVLLPLNEPVHGTKRRSQIQTFLDHHGGPGVQHIALASDDVLRTLREMRARSAMGGFEFLPPPLSDYYDGVRRCAGDVLTEAQINECQELGVMVDRDDQGVLLQIFTKPVGDRPTFFLEIIQRIGCMEKDEKGQEYQKGGCGGFGKGNFGQLFKSIEDYEKSLEAKHAAAAATAQGS
modifications: Zea mays variant form created by artificial means.
B2: 191G: single substitution A191G in SEQ ID NO:2 (protein)
chain: B1 chain with A191G, H434Q
modifications: Zea mays variant form created by artificial means.
B3: 182M: single substitution L182M in SEQ ID NO:2 (protein)
chain: B1 chain with L182M, H434Q
modifications: Zea mays variant form created by artificial means.
B4: 366E: single substitution Q366E in Round 7, variant 9070 (SEQ ID NO:2) (protein)
chain: B1 chain with Q366E, H434Q
modifications: Zea mays variant form created by artificial means.
B5: 417S: single substitution G417S in SEQ ID NO:2 (protein)
chain: B1 chain with G417S, H434Q
modifications: Zea mays variant form created by artificial means.
B6: 432R: single substitution A432R in SEQ ID NO:2 (protein)
chain: B1 chain with A432R, H434Q
modifications: Zea mays variant form created by artificial means.
B7: 417Q: single substitution G417Q in SEQ ID NO:2 (protein)
chain: B1 chain with G417Q, H434Q
modifications: Zea mays variant form created by artificial means.

Legend:
Type in all cases: biochemical, Z. mays
[1] = system: 4-hydroxyphenylpyruvate dioxygenase (HPPD); experiment: Insensitivity parameter (ON × OFF) and trait fitness (ON × OFF × kcat/KM or × kcat); settings: for ON × OFF × kcat, Value / ON × OFF × kcat, Fold vs wt / ON × OFF, fold vs wt / ON × OFF (parameters with tembotrione): Table 5, tembotrione; for ON × OFF × kcat, Fold vs wt / ON × OFF, fold vs wt: fold vs maize wild type HPPD; for ON × OFF (parameters with tembotrione): insensitivity parameter
In short: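 Trait fitness combines catalysis and insensitivity as kcat/KM × ON rate ratio × OFF rate ratio. The insensitivity parameter is the product of ON and OFF rate ratios, used in place of KD because the ON rate ratio is inverse.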

[2] = system: 4-hydroxyphenylpyruvate dioxygenase (HPPD); experiment: ON rate ratio: HPPD reaction rate with vs without inhibitor in the 70 to 90 second interval; settings: Table 5; tembotrione
In short: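 Indicator of inhibitor on-rate: reaction velocity in the 70 to 90 second window with 4 μM inhibitor divided by that without. Reactions contained 100 μM HPP and 60 or 120 nM HPPD; slower binding gives a larger ratio.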

[3] = system: 4-hydroxyphenylpyruvate dioxygenase (HPPD); experiment: HPPD activity coupled assay with HGD; substrate saturation kinetic parameters (kcat, KM); settings: Table 6; for kcat: single substitutions in SEQ ID NO:2
In short: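 Coupled continuous assay: His-tagged HPPD (5 to 240 nM, E. coli-expressed, Ni-NTA-purified) with 50 nM P. aeruginosa HGD in 25 mM Hepes pH 7, 2 mM ascorbate, 10 μM FeSO4; maleylacetoacetate followed at 320 nm. KM and Vmax from Lineweaver-Burke fits over 3.33–100 μM HPP.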

[4] = system: 4-hydroxyphenylpyruvate dioxygenase (HPPD); experiment: OFF rate ratio: release of inhibitor from pre-formed enzyme-inhibitor complex; settings: Table 5; tembotrione
In short: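 Inhibitor release from pre-formed complex (enzyme 7.2 μM, inhibitor 8 μM, 1 h RT) tracked as accelerating HPPD activity at 320 nm over 12 min, coupled via 50 nM HGD with 100 μM HPP at pH 7. OFF rate ratio: steady-state velocity relative to uninhibited initial velocity.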

[5] = system: 4-hydroxyphenylpyruvate dioxygenase (HPPD); experiment: Estimate of kcat from initial rate at saturating hydroxyphenylpyruvate without inhibitor (ON rate ratio assay); settings: Table 5; single substitutions in Round 7 variant 9070 (SEQ ID NO:2); estimate from initial rate at saturating hydroxyphenylpyruvate without inhibitor
In short: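 kcat was estimated from the initial reaction rate with known enzyme level (60 or 120 nM HPPD). Hydroxyphenylpyruvate was at a saturating 100 μM, with no inhibitor present.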

[6] = DKN (diketonitrile form of isoxaflutole)
[7] = DKN (isoxaflutole diketonitrile)

| Molecule | Insensitivity parameter, ON × OFF [1, 6] | ON × OFF × kcat/km fold vs Round 7, variant 9070 [1, 7] | Insensitivity parameter, ON × OFF ([1]; Mesotrione, Table 6) | ON × OFF × kcat/km fold vs Round 7, variant 9070 ([1]; Sulco (sulcotrione)) | Insensitivity parameter, ON × OFF ([1]; Sulcotrione) | ON × OFF × kcat, Value [1] | ON × OFF × kcat, Fold vs wt [1] | ON × OFF, fold vs wt [1] | ON × OFF (parameters with tembotrione) [1] | Insensitivity parameter, ON × OFF ([1]; Tembotrione) | ON × OFF × kcat/km fold vs Round 7, variant 9070 ([1]; Topra (topramezone)) | Insensitivity parameter, ON × OFF ([1]; Topramezon) | ON × OFF × kcat/km fold vs Round 7, variant 9070 ([1]; meso (mesotrione)) | ON × OFF × kcat/km fold vs Round 7, variant 9070 ([1]; tembo (tembotrione)) | ON ratio (parameters with tembotrione) [2] | Km [3] [µM] | kcat [3] [s⁻¹] | OFF ratio (parameters with tembotrione) [4] | kcat [5] [s⁻¹] |
| --- | --- | --- | --- | --- | --- | --- | --- | --- | --- | --- | --- | --- | --- | --- | --- | --- | --- | --- | --- |
| B1 | 0.21 | 1.4 | 0.46 | 1.3 | 0.55 | 5.16 | 4.82 | 19.5 | 0.10 | 0.15 | 1.1 | 0.22 | 1.3 | 1.1 | 0.78 | 2.77 | 1.41 | 0.13 | 0.865 |
| B2 | 0.25 | 1.1 | 0.40 | 1.1 | 0.51 | 4.36 | 4.08 | 20.1 | 0.10 | 0.19 | 1.1 | 0.24 | 1.1 | 1.0 | 0.77 | 2.46 | 1.2 | 0.13 | 0.71 |
| B3 | 0.30 | 0.9 | 0.44 | 0.9 | 0.60 | 5.63 | 5.26 | 42.5 | 0.22 | 0.23 | 0.9 | 0.29 | 0.8 | 1.0 | 0.79 | 2.88 | 0.935 | 0.28 | 0.433 |
| B4 | 0.44 | 1.7 | 0.78 | 1.4 | 0.74 | 3.58 | 3.35 | 34.9 | 0.18 | 0.33 | 1.9 | 0.48 | 1.8 | 1.8 | 0.75 | 1.61 | 0.647 | 0.24 | 0.335 |
| B5 | 0.41 | 0.9 | 0.67 | 1.1 | 0.77 | 4.26 | 3.98 | 45.2 | 0.23 | 0.33 | 1.2 | 0.41 | 1.3 | 1.6 | 0.82 | 1.41 | 0.445 | 0.28 | 0.308 |
| B6 | 0.27 | 2.1 | 0.53 | 1.3 | 0.59 | 4.75 | 4.44 | 30.4 | 0.16 | 0.23 | 1.4 | 0.31 | 1.5 | 1.6 | 0.78 | 1.97 | 0.945 | 0.20 | 0.51 |
| B7 | 0.39 | 1.0 | 0.73 | 1.2 | 0.74 | 4.04 | 3.77 | 38.4 | 0.20 | 0.33 | 1.4 | 0.39 | 1.5 | 1.5 | 0.74 | 1.56 | 0.558 | 0.27 | 0.343 |

Source: patent US11015206B2, “Compositions and methods comprising sequences having hydroxyphenylpyruvate dioxygenase (HPPD) activity” (PIONEER HI-BRED INTERNATIONAL, INC., priority 2014, dated 2021)
